Data reported in publication PMC2963451.

Biological target: Gag (GagΔp6) (HIV-1 BH10, UniProt P03347 1-447)
Experiment: fluorescence anisotropy

Binder	Kd
AGCUGCUUUUUGCCUGUACU (ssRNA) [JL943]	8 nM
AGCTGCTTTTTGCCTGTACT (ssDNA) [JL936]	9 nM
